{"source": "patent US20220195015A1", "about": "(published 2022)", "binders": {"B1": {"name": "C583 (antibody, V domains shown)", "VH": "EVQLVESGGGLIQPGGSLRLSCAASILTVSRNYMSWVRQAPGKGLEWVSSIYSGGTTYYADSVKGRFTISRDDSKNTLYLQMNSLRAEDTAVYYCARPVVGGRAGMDVWGQGTTVTVSS", "VL": "DIQMTQSPSSLSASVGDRVTITCQASQDINKYLNWYQQKPGKAPKLLIYDASNLETGVPSRFSGSGSGTDFTFTISSLQPEDIGTFYCLHNDNPPLTFGGGTKVEIK"}, "B2": {"name": "C582 (antibody, V domains shown)", "VH": "QVQLVESGGGVVQPGRSLRLSCVASGFTFSYFDMHWVRQAPGKGLEWVALISHDGSTTFYGDSARGRFTISRDNSRNTLDLQMNSLRPEDTAVYFCAKPVDAAMFDFWGQGTLVTVS", "VL": "SYELTQPPSVSVAPGKTARITCGGNNIGSKSVHWYQQRPGQAPVLVIYYDSDRPSGIPERFSGSNSGNTATLTISRVEAGDEADFYCQVWDRSTNHLVVFGGGTQLTVL"}, "B3": {"name": "C588 (antibody, V domains shown)", "VH": "EVQLVESGGGLVQPGGSLKLSCAASGFTFSGSAMHWVRQASGKGLEWVGRIRNKANSYATAYGASVRGRFTVSRDDSKNTAYLQMNSLKIEDTAVYYCTKDIAAGIPALNWFDSWGQGTLVTVSS", "VL": "EIVLTQSPATLSLSPGERATLSCRASQSVSSYLAWYQQKPGQAPRLLIYDASNRATGIPARFSGSGSGTDFTLTISSLEPEDFAVYYCQQHTNWPPRITFGGGTKVEIK"}, "B4": {"name": "C585 (antibody, V domains shown)", "VH": "QVQLQESGPGLVKPSETLSLTCTVSGDSISSYFWSWIRQPPGRGLEWIGYIHDSVNTNYNPSLKSRVTISVDTSKSQFSLRLSSVTAADTAVYYCARCAWLRGSFDYWGQGTLVTVSS", "VL": "NFMLTQPHSVSESPGKTVTISCTGSSGSIASNYVQWYQQRPGSAPTTVIYEDNQRPSGVPDRFSGSIDSSSNSASLTISGLKTEDEADYYCQSYDFSSHYVFGTGTKVTVL"}, "B5": {"name": "C589 (antibody, V domains shown)", "VH": "QVQLQESGPGLVKPSQTLSLTCTVSGGSISSGDYYWSWIRQPPGKGLEWIGYIYYSGSTNYNPSLRSRVTISVDTSKNQFSLRLRSVTAADTAVYYCARDAIGSASYGVEYFQHWGQGTLVTVSS", "VL": "not shown"}, "B6": {"name": "C591 (antibody, V domains shown)", "VH": "QVQLVQSGAEVKKPGASVKVSCKASGYILTDYFIHWVRQAPGQGLEWMGWINPNSGGTNYAQKFQGRVTMTRDTSISTAYMELSRLRSDDTAVYHCARYKGTTVNTNYYYGMDVWGQGTTVTVSS", "VL": "not shown"}, "B7": {"name": "C592 (antibody, V domains shown)", "VH": "B6 VH with I28T, L29F, I34N, Y60S, S77T, A79V, H95Y", "VL": "SYELTQPPSVSVSPGQTASITCSGDKLRNKYACWYQQKAGQSPMLVIYQDTKRPSGIPERFSGSNSGNTATLTISGTQAMDEADYYCQAWDISTVVFGGGTKLTVL"}, "B8": {"name": "C583 (antibody, V domains shown)", "VH": "B1 VH", "VL": "B1 VL"}, "B9": {"name": "C584 (antibody, V domains shown)", "VH": "EVQLVESGGGLVQPGGSLRLSCAASGFTFSTYDMHWVRQATGKGLEWVSAIGTAGDKYYPGSVKGRFTISRENAKNSLYLQMNSLRAGDTAVYYCVRAGYSSGWPLYWYFDLWGRGTLVTVSS", "VL": "DIQMTQSPSSLSASVGDRVTITCRASQSISSYLNWYQQKPGKAPKFLIYAASSLQSGVPSRFSGSGSGTDFTLTISNLQPEDFATYYCQQSYRTPPEFTFGPGTKVDIK"}, "B10": {"name": "C593 (antibody, V domains shown)", "VH": "QVQLVQSGAEVKKPGASVKVSCKASGYTFTSYDINWVRQAPGQGLEWMGWMNPNSGNTDYAQKFQGRFTMTRNTSISTAYMELSSLRSEDTAVYYCASRRWDPLTFYYYMVVWGKGTTVTVSS", "VL": "not shown"}, "B11": {"name": "C594 (antibody, V domains shown)", "VH": "QVQLVESGGGVVQPGRSLRLSCAASGFTFSSYGMHWVRQAPGKGLEWVAVISDDGSNKYYADSVKGRFTISRDNSKNTLYLQMNSLRAEDTAVYYCAKSWWLSENWFDPWGQGTLVTVSS", "VL": "EIVMTQSPATLSVSPGERATLSCRASQSVSSNLAWYQQKPGQAPRLLIYGASTRATGIPARFSGTGSGTEFTLTISSLQSEDFAVYYCQQYNNWPLTFGGGTKVEIK"}, "B12": {"name": "C595 (antibody, V domains shown)", "VH": "B11 VH with P14A, Y32F, M34L, S56A, E89D, V93K", "VL": "B11 VL with S30R, T65S, E70D"}, "B13": {"name": "C590 (antibody, V domains shown)", "VH": "QVQLVQSGAEVKKPGASVKVSCKVSGYNLTELSMYWVRQAPGKGLEWMGGFDPEDGGPIHAQKFQGRVTMTEDPSTDTAYMELRSLRSEDTALYYCATGGLFMIRGLEIWGRGTLVTVSS", "VL": "EIVLTQSPGTLSLSPGERATLSCRASQSISYTSLAWYQQKPGQAPRLLIFGASRGATGTPDRFSGSWSGTDFTLTISRLEPEDFAVYYCQQYGNSPRLSFGGGTKVEIK"}, "B14": {"name": "C582 (antibody, V domains shown)", "VH": "B2 VH", "VL": "B2 VL"}, "B15": {"name": "C586 (antibody, V domains shown)", "VH": "EVQLVESGGGLIQPGGSLRLSCTASGLIVSSNYMSWIRQAPGKGLEWVSLIYSGGSTFYADSVKGRFTISRDNSKNTLFLHMNSLRAEDTAVYYCARHPYGTDVWGQGTTVTVSS", "VL": "DIQMTQSPSSLSASVGDRVTITCQASQDIVKYLNWYQQKSGKAPKLLIHDASNLETGVTSRFSGSGSGTHFTFTISSLQPEDLATYYCQQYDNLPITFGQGTRLEIK"}, "B16": {"name": "C596 (antibody, V domains shown)", "VH": "QVQLVESGGGVVQPGRSLRLSCAASGITFSHYGMHWVRQAPGKGLEWVALISSDGSKKYYADSVKGRFTISRDNSKSTLYLQMNSLRAEDTAIYYCAKDLGYYYGPPYGPDYWGQGTLVTVSS", "VL": "DIQMTQSPSSLSASVGDRVTITCQASQDVSNSLNWYQQKPGKAPKLLIYDASNLETGVPSRFSGSGSGTDFSFTISSLQPEDIATYYCLQYDNFSMYTFGQGTKLEIK"}, "B17": {"name": "C587 (antibody, V domains shown)", "VH": "QVQLVQSGAEVKKSGSSVKVSCKASGGSFSSYAISWVRQAPGQGLEWMGGIIPIFGTAKYAQKFQGRVTITADESTSTAYMELSSLRSEDTAVYYCASRWEQLNGGSWHYFDYWGQGTLVTVSS", "VL": "QSALTQPASVSGSPGQSITISCTGTRSDVGRNNLVSWYQHHPGKAPKVMIYEGSKRPSGVSTRFSGSKSGNTASLTISGLQAEDEADYYCCSYAGSSTFEGVFGGGTKLTVL"}, "B18": {"name": "C049 (antibody, V domains shown)", "VH": "QVQLQESGPGLVKPSETLSLTCTVSGGSVSSGTFYWSWIRQPPGKGLEWIGYIHYSGSTNYNPSLKSRVTISVDTSKNQFSLRLSSVTAADTAVYYCARESFYYDRSGYYGSDAFDIWGQGTMVTVSS", "VL": "DIQMTQSPSTLSSSVGDRVTITCRASQNISRWLAWYQQKPGKAPKLLIYKASTLESGVPSRFSGSGSGTKFTLTISSLQPDDFATYYCQQYNSYLYTFGQGTKLEIK"}, "B19": {"name": "C044 (antibody, V domains shown)", "VH": "EVQLVESGGGLVQPGGSLRLSCAASGFTFSSYSMNWVRQAPGKGLEWVSYISSSSSTIYYADSVKGRFTISRDNAKNSLYLQMNSLRDEDTAVYYCAREAHDGALTDYGDYLNWFDPWGQGTLVTVSS", "VL": "SYELTQPPSVSVAPGKTARITCGGNNIGSKSVHWYQQKPGQAPVLVIYYDSDRPSGIPERFSGSNSGNTATLTISRVEAGDEADYYCQVWDSSSDHLYWVFGGGTKLTVL"}, "B20": {"name": "C045 (antibody, V domains shown)", "VH": "B19 VH with S31T, Y59H", "VL": "B19 VL with N25T, S31N, S51N, S92T, S93T, L97F"}, "B21": {"name": "C048 (antibody, V domains shown)", "VH": "VQLQESGPGLVKPSETLSLTCAVSGGSVSSGNYYWNWIRQPPGKGLEWIGYIYYSGSTNYNPSLKSRVTISVDTSKNQFSLKLNSVTAADTAVYHCARETYYYDSSGYYISDAFDIWGQGTMVTVSS", "VL": "not shown"}, "B22": {"name": "C043 (antibody, V domains shown)", "VH": "QLVQSGPEVKKPGTSVKVSCKASGFTFYNSAVQWVRQARGQRLEWVGWIVVGSGNTDYAQKFQERVTMTRDLSTNTAYMEVNSLRSEDTAVYYCAAPYCSGGTCLDGFDIWGQGTMVTVSS", "VL": "EIVLTQSPGTLSLSPGERGTLSCRASQSVRSNYLAWYKQRPGQAPRLLVYGASSRATGIPDRFSGSGSGTDFTLTISRLEPEDFAVYYCQQYGSSPWTFGQGTKVEIK"}, "B23": {"name": "C099 (antibody, V domains shown)", "VH": "EVQLVESGGGLIQPGGSLRLSCAASGITVSSNYMSWVRQAPGKGLEWVSVMYAGGSTFYADSVKGRFTISRDDSKNTLFLQMNSLRAEDTAIYYCARDLYSSGGTDIWGQGTMVTVSS", "VL": "EIVLTQSPGTLSLSPGERATLSCRASQSIGSSYLAWYQQKPGLAPRLLIYGASRRATGIPDKFSGSGSGADFTLTISRLEPEDFAVYYCQQYGSSPGTFGQGTKVEIK"}}, "note": "Changes are numbered by the printed parent chain."}
{"molecular_target": "SARS-CoV-2 RBD (S protein residues 319-539), wild type (SARS-CoV-2, UniProt P0DTC2 319-539)", "assay": "ELISA, RBD coated on plate, mAb titrated", "units": {"EC50": "ng/mL"}}
{"binder": "B1", "EC50": 4.42}
{"binder": "B2", "EC50": 8.43}
{"molecular_target": "SARS-CoV-2 receptor binding domain (RBD), wild type (SARS-CoV-2, UniProt P0DTC2 319-539)", "assay": "ELISA, RBD coated on the plate, antibody titrated", "units": {"EC50": "ng/mL"}}
{"binder": "B3", "EC50": 1.36}
{"binder": "B4", "EC50": 11}
{"binder": "B5", "EC50": 6.61}
{"binder": "B6", "EC50": 3.83}
{"binder": "B7", "EC50": 6}
{"binder": "B8", "EC50": 4.42}
{"binder": "B9", "EC50": 10.5}
{"binder": "B10", "EC50": 4.36}
{"binder": "B11", "EC50": 2.63}
{"binder": "B12", "EC50": 2.04}
{"binder": "B13", "EC50": 2.81}
{"binder": "B14", "EC50": 8.43}
{"binder": "B15", "EC50": 5.42}
{"binder": "B16", "EC50": 21}
{"binder": "B17", "EC50": 4.39}
{"molecular_target": "SARS-CoV-2 spike protein on HIV-1 pseudotyped particles (SARS-CoV-2, UniProt P0DTC2 14-1254)", "assay": "cell-based or functional assay", "units": {"Neutralization IC50": "ng/mL", "Neutralization IC90": "ng/mL"}}
{"binder": "B18", "Neutralization IC50": 18.1, "Neutralization IC90": 129}
{"binder": "B19", "Neutralization IC50": "> 10000", "Neutralization IC90": "> 10000"}
{"binder": "B20", "Neutralization IC50": "> 10000", "Neutralization IC90": "> 10000"}
{"binder": "B21", "Neutralization IC50": 62.2, "Neutralization IC90": 523}
{"binder": "B22", "Neutralization IC50": 10.6, "Neutralization IC90": 74.4}
{"binder": "B23", "Neutralization IC50": 27.2, "Neutralization IC90": 86.1}
